What all share (settings): both partners purified
Assay [1] addresses T1, SARS-CoV-2 RBD-rCD4-Avi-His (SARS-CoV-2 (reference sequence), UniProt P0DTC2).
T1 construct: also called RBD-rCD4-His
Briefly: SPR. A general note: SPR reads the build-up and loss of mass on a sensor chip optically.

Assay [2] addresses T2, SARS-CoV-2 RBD-rCD4-Avi-His (SARS-CoV-2, UniProt P0DTC2).
T2 construct: also called RBD-rCD4-His; monomeric RBD; source: Expi293F, purified (Nickel-NTA agarose)
Briefly: SPR.

Assay [3] addresses T3, SARS CoV-2 RBD (Acro BioSystems, SPDC52H3) (SARS-CoV-2 (reference sequence), UniProt P0DTC2).
T3 construct: source: bought: Acro BioSystems
Briefly: BLI. Background: BLI is a label-free optical method that tracks binding on a fibre tip over time.

The target in assay [4] is T4, SARS-CoV-1 RBD (SARS-CoV-1 (SARS-CoV); isolate not …, UniProt P59594).
T4 construct: also called RBD subdomain of the SARS-CoV-1 spike protein; source: Expi293F, purified (Nickel-NTA agarose)
Briefly: binding assay based on time resolved fluorescence (TRF).

Assay [5] concerns the target T5, MERS-CoV S1 with a His tag (MERS-CoV, isolate EMC/2012 (from …, UniProt K0BRG7)).
T5 construct: source: bought: Sino Biological
The assay is described as above.

The text below walks through data of article PMC8239432, “Cross-Reactive SARS-CoV-2 Neutralizing Antibodies From Deep Mining of Early Patient Responses” (Frontiers in Immunology, 2021).

B1: ION_360 IgG1 (antibody, V domains shown)
VH: EVQLVQSGGGLVKPGGSLRLSCAASGITVSSNYMSWVRQAPGKGLEWVSVIYSGGSTYYADSVKGRFTISRDNSKNTLYLQMNSLRAEDTAVYYCARGEGGSIVGVTSDYWGQGTLVTVSS
VL: DIQMTQSPSSLSASVGDRVTITCRASQSISRYLNWYQQKPGKAPKLLIYAASSLQSGVPSRFSGSGSETEFTLTISSLHPDDFATYYCQQSYSTLPYTFGQGTKVEIK
notes: source: ExpiCHO or Expi293, purified (protein A, SEC)
With B1, in assay [1], the koff (commonly a measure of how fast the partners let go of each other) came to 0.000279 s⁻¹ and the kon – broadly, the rate constant with which the complex forms – stood at 188000 M⁻¹ s⁻¹.

B2: ION_360 IgG1 (antibody, V domains shown)
VH: B1 VH
VL: B1 VL
For B2, the Kd (usually a measure of binding affinity in units of concentration) in assay [2] was 1.5 nM.

B3: ION_300 IgG1 (antibody, V domains shown)
VH: QVQLVQSGAEVKKPGESLKISCKGSGYSFTSYWIGWVRQMPGKGLEWMGIIYPGDSDTRYSPSFQGQVTISADKSISTAYLQWSSLKASDTAMYYCARHPSPYYYGSGSYSGGFDYWGQGTLVTVSS
VL: DIVMTQSPGTLSLSPGERATLSCRASQSVSSSYLAWYQQKPGQAPRLLIYGASTRATGIPARFSGSGSGTEFTLTISSLQSEDFAVYYCQQYDNWPLMHTFGQGTKLEIK
notes: as for B1
In assay [1], B3 yielded a Kd of 3.4 nM, a koff of 0.000775 s⁻¹ and a kon of 252000 M⁻¹ s⁻¹.

B4: ION_300 IgG1 (antibody, V domains shown)
VH: B3 VH
VL: B3 VL
Consider B4, for which the results for the binding result in assay [3], in assay [4] and in assay [5] were “binds”, “binds” and “no binding”, respectively.
